Measurements: paper PMC11333492 (Nature Communications, 2024)

Target: T1, FluPolB (influenza B/Memphis/13/2003 polymerase heterotrimer) (influenza B/Memphis/13/2003, UniProt Q5V8Z9;Q5V8Y6;Q5V8X3)
T1 construct: copies: + +
Assay: SEC
Conditions: both partners purified

B1: hANP32A LCAR alone (144-249) (domain or fragment)
chain: YLDGYDRDDKEAPDSDAEGYVEGLDDEEEDEDEEEYDEDAQVVEDEEDEDEEEEGEEEDVSGEEEEDEEGYNDGEVDDEEDEEELGEEERGQKRKREPEDEGEDDD
Q: Does B1 bind?
A: Result: binds
